The RNAGym collection of RNA variant scans (doi:10.1073/pnas.2313332121)

B1: TPR t1 (parent)
chain: GACCAAUCUGCCCUCAGAGCUCGAGAACAUCUUCGGAUGCAGAGGAGGCAGGCUUCGGUGGCGCGAUAGCGCCAACGUCCUCAACCUCCAAUGCAUCCCACCACAUGAUGAUGCCUGAAGAGCCUUGGUUUUUUG

Variants of: B1
Experiment: polymerase ribozyme fitness, log enrichment relative to wild type (log ratio); higher = more active; in vitro selection for triplet polymerase activity
Procedure, shortened: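 Each subunit of a heterodimeric triplet polymerase ribozyme was mutagenized into a library by PCR, transcribed, and subjected to one round of in vitro selection, run in triplicate. Libraries were annealed with a biotinylated primer, the partner subunit and triplets, incubated frozen at −7 °C, and extended constructs were gel-excised, captured on streptavidin beads and recovered by RT-PCR. Input and output libraries were sequenced on Illumina, keeping genotypes with ≥10 input reads and ≥1 read per output. Fitness is log base 2 of genotype enrichment divided by wild-type enrichment, from inverse-variance-weighted replicate averages.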

Row | Variant | polymerase ribozyme fitness (log ratio)
1 | C79A A121U U134G | 2.45
2 | G77A G93A A100G U112C U131A | -2.12
3 | C79A G110U | -3.48
4 | C79A G110C | -5.36
5 | G77C A95C G113A | -2.42
6 | C76U U96G U116G | -3.28
7 | G77A U81C | 0.0727
8 | G77C A83C | -0.826
9 | U78C A84C G113U G128A | -4.29
10 | C79U A95C | -0.848
11 | U78A C94G A118U G120C U132A | -0.124
12 | U78C U87A C98U | -1.12
13 | U78A G120U | -0.295
14 | C79U G117A U125G | -1.82
15 | U78C C94U U112C | 0.656
16 | G77U A95C C102A | -3.06
17 | C79U U87A | 0.23
18 | C79U A105C | -1.36
19 | C76G G93A C115G | -4.44
20 | C79A G107U A119G G135C | -5.92
21 | U78C G113C | -1.53
22 | U78C G113U | -3.31
23 | A75G U96A A105G | -6.14
24 | G77A U87A C101G | -2.13

Row | Variant | polymerase ribozyme fitness (log ratio)
25 | U78A C79U | 0.293
26 | C76G C88A C101A U130A | -1.71
27 | C79U C80U | -2.32
28 | C76G G120A | 0.286
29 | U78A G117U | -2.81
30 | G77C U81G | -1.57
31 | U78G C88G | -0.734
32 | U78C C89A | -0.68
33 | U78C C79G U106A | -0.519
34 | C76G U106C G128C | -3.27
35 | U78A C102A U112A | -1.54
36 | U78G C86G C101U | -1.51
37 | G77C C124U | 1.82
38 | G77A C80U G113A | -1.46
39 | C79G C114G | -5.17
40 | C79A G93A | -1.37
41 | U78G A90C | -1.6
42 | G77A C79G A100U G113U C123G | -6.77
43 | C79U C114A G120C G127U | -1.06
44 | C76A C98U | -1.53
45 | C76A C79G C123G | 0.511
46 | U78C G120U | -0.256
47 | U78C G120C | 0.45
48 | C79A G120C | 0.837

Row | Variant | polymerase ribozyme fitness (log ratio)
49 | U78C C115A | -0.63
50 | A75G U87A | -0.246
51 | C79G C114A C115G | -6.59
52 | C79A A105U | -4.41
53 | U78C C97G C104A | -4.78
54 | C79U G110A | -0.826
55 | U78A C89G | -1.56
56 | U78A U87A | -0.201
57 | G77A U109C | -3
58 | G77A C80A G120U | -2.54
59 | C79U A90C G93A | -2.09
60 | G77A C123G G135U | 0.853
61 | U78C G122A | -1.22
62 | C76G U109C A119U C123A | -6.47
63 | C79U C114U | -2.32
64 | U78G G120U | -0.202
65 | C76U C88A U133G | -0.912
66 | C79U A95C G120A | -0.000389
67 | U78A C104A C114A | -5.24
68 | G77A U78G | -0.219
69 | C79U U92G C115G | -3.67
70 | G77U A103C | -4.83
71 | A75G G117A | -1.28
72 | C79G U131C | -1.28

Row | Variant | polymerase ribozyme fitness (log ratio)
73 | U78G C82G | -0.36
74 | U78C C89U C115A | -0.146
75 | C76A C94A C101A | -2.64
76 | G77A U92G C94A C99G A111C | -8.36
77 | C76A A118G | -0.854
78 | U78A G93C | -0.506
79 | U78C C97U A103U C123G | -4.59
80 | G77C U96A U125A | -3.38
81 | U78C C104A G113U | -4.71
82 | A75G C102A | -1.52
83 | C79G C123G | 0.221
84 | C79U C86U | -0.175
85 | C76G G113U | -4.13
86 | A75U C79G C88U U130G | -2.82
87 | C79U U96G | -0.798
88 | G77C C79U | 0.563
89 | U78C U81A A83G | -0.944
90 | C79U G107A | -4.41
91 | C79A C94A G117U | -4.86
92 | G77A C80A U92C | -5.14
93 | U78A C88U U96G U129A U131A | -2.62
94 | G77A C123U | 1.1
95 | G77A C123G | 1.16
96 | U78C U87A U130C | 0.517

Row | Variant | polymerase ribozyme fitness (log ratio)
97 | C79A G113A | -2.27
98 | U78A C114U | -1.83
99 | C79U C94U | -0.702
100 | G77C C86U A90C U125A | -1.83
101 | G77U U78G C123A | -0.257
102 | U78A C94G C101A | -1.93
103 | C79U G93C A100U U112G | -2.61
104 | U78C A121C | 1.83
105 | G77C G110A A118C | -1.65
106 | C76A C102A | -3.94
107 | G77U G120A | -0.148
108 | G77U G120C | 0.43
109 | U78A U131C | 0.382
110 | G77U G113A G135A | -1.34
111 | U78G C79A A118G U130G | -2.19
112 | G77U U131G | -1.01
113 | C79U C101G | -1.8
114 | C79A U112A C115A C123G | 0.259
115 | C76U A91C | -2.38
116 | C76U A91G | -2.17
117 | U78C A103U | -5.46
118 | U78G A111U | -3.77
119 | C79A U116G | -4.15
120 | G77A C102A | -2.07

Row | Variant | polymerase ribozyme fitness (log ratio)
121 | A75U G110U A121U | -1.08
122 | U78A G135U | -0.889
123 | A75U U81G | -3.97
124 | U78G G117C | -4.47
125 | G77C C89U G110C G135A | -4.53
126 | C79A C80G | -5.91
127 | G77C C85U | -1.99
128 | C76G A91U U132A | -1.52
129 | U78C A100U | -0.819
130 | U78G C89U U125G | -0.754
131 | C76A U81A C89U | -1.33
132 | C79A U106G | -3.37
133 | U78A G113C U130C | -3.05
134 | C76G G122A | -1.36
135 | A75G G120A A121C | 0.562
136 | C79A G117U G120C | -3.42
137 | C79A G93A G110U | -4.93
138 | C79U G128C | -2.48
139 | C79A C102U | -4.37
140 | C79A A111G | -0.997
141 | G77C U78C A105G A119G | -1.64
142 | C76A C102A C123A | -3.55
143 | U78A A118G | -0.761
144 | C79U G120A | 0.635

Row | Variant | polymerase ribozyme fitness (log ratio)
145 | C79A C114G | -4.53
146 | C79A C114A | -2.46
147 | C79U U106A U116G | -2.6
148 | U78A G113U | -3.98
149 | U78A G113A | -1.22
150 | C79U C80U U112A | -2.98
151 | G77U C104G | -6.6
152 | G77A C86U U112A | 1.14
153 | C79A A91G | -2.3
154 | U78C G117U | -2.53
155 | G77A U92C G117C | -5.8
156 | C76U U106C G128C | -3.51
157 | U78C C124U | 1.72
158 | G77A A91G C114U | -2.54
159 | G77A C115U G128A | -3.21
160 | C79G C101A | -3.09
161 | C79G C101U | -1.49
162 | G77A G110A | -1.28
163 | G77A G110U | -1.1
164 | C76G U130A | -0.718
165 | G77U C89U | -0.519
166 | U78C C88A U106G C114G | -3.35
167 | C79G U112A | -1.41
